According to patent publication US20070218001A1 (BIOTECH STUDIO, published 2007):
Where “and” joins values, the source holds several entries; their conditions need not be identical. Identical values can stand only once. Where no end group is shown, it is not given here. The star is where a group is joined. Biotin = O=C1N[C@H]2[C@H](CS[C@H]2CCCCC(=O)*)N1

T1: recombinant phage displaying CASK PDZ domain (PDZ domain of human hCASK, hCASK-PDZopt in pCANTAB5E) (human, UniProt O14936 480-577)
T1 construct: also called wildtype hCASK-PDZ
T1 sequence: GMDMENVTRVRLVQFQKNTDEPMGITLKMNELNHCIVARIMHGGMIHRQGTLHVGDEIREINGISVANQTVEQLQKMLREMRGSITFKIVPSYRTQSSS

B1: biotin-QKAPTKEFYA peptide (peptide)
peptide: Biotin-QKAPTKEFYA
notes: also called cognate peptide ligand of hCASK PDZ; C-terminus of syndecan-2

Tests used:
biotin-… peptide = test: phage ELISA, biotinylated peptide on streptavidin-coated wells, anti-M13 HRP and ABTS, 35 min at room temperature
[1] = biological target: T1, recombinant phage displaying CASK PDZ …; test: phage ELISA

Row | Molecule | OD405 (biotin-… peptide) | binding result [1]
1 | phage-displayed third PDZ domain of human Dlg1 (in pCANTAB5E) | 0.51 OD405 and 0.46 OD405 | 
2 | B1 |  | binds
